Where “and” joins values, the source holds several entries; their conditions need not be identical. Equal entries are not always repeated.

Type in all cases: physicochemical, human
A short description of data set [1]: Tryptophan (W580) fluorescence emission. The following applies: W580, excitation 295 nm. Here is the method: Steady-state tryptophan fluorescence emission spectra of native, thermally denatured and refolded proteins were recorded from 300 to 400 nm, selectively exciting the only tryptophan residue in the SBD (W580) at 295 nm, using a Cary Eclipse spectrofluorimeter (Varian, Palo Alto, CA, USA). Excitation and emission band-passes were set to 5 nm each.

A short description of data set [2]: Thermal denaturation monitored by far-UV CD. Here is the method:
Protein structural stability was analyzed by monitoring the CD signal at 222 nm upon thermal denaturation. Thermal runs were performed from 5 to 90 °C at a rate of 1 °C. min^-1. Data points were acquired every 0.1 °C with a response time of 2 s and a bandwidth of […]. After thermal denaturation, each protein sample was cooled to the starting temperature, and a second denaturation curve recorded in order to analyse the degree of reversibility of the denaturation process. Analysis of the thermal unfolding curves was performed assuming a three-state unfolding model.

Data set [3] can be described thus: nESI-MS relative populations of oligomeric forms. The following applies: 150 mM ammonium acetate. Here is the method:
Prior to MS analysis, samples were buffer exchanged into 150 mM ammonium acetate, pH 7.4, using Micro Bio-spin 6 columns (Bio-Rad, Digilab Division, Cambridge, MA, USA). For all the experiments protein concentrations ranging from 6 to 18 µM were used. In the case of the substrate binding experiments, proteins were analyzed in the presence of a 1: 1 molar ratio of the NR peptide; this substrate concentration, lower than in the SEC experiments, was chosen to ensure adequate resolution of the various charge state series, which is critical for unambiguous assignment of substrate-bound states. Due to suppression effects during nESI ionization, a relatively limited set of molar ratios could be investigated by in this way.
nESI-MS spectra were obtained according to a previously published protocol on an orthogonal time-of-flight mass spectrometer with a Z-spray source (LCT, Waters, Manchester, UK) in positive ion mode using the following parameters: capillary voltage, 1500 V; sample cone voltage, 120 V (unless otherwise specified); extraction cone voltage, 1V; and ion transfer stage pressure, 8.8 mbar. Spectra were calibrated externally using a 33 mg/ml solution of cesium iodide. Data were acquired and processed with MassLynx software (Waters, Manchester, UK), and are shown with minimal smoothing and without background subtraction. The relative abundances of the different oligomeric states were estimated from the intensities of the most abundant charge states for each construct and are expressed as a percentage of the total intensity.

[4] abbreviates: 6-15 µM protein, pH 7.4, estimated error 5% (SD of 3-4 independent experiments).

Regarding “SBD641: truncated human Hsp70 (384-641), full-length SBD with interdomain linker”, in data set [1], the “Wavelength of fluorescence emission maximum, native” value stood at 340 nm; the “Wavelength of fluorescence emission maximum, refolded” value is reported as 345 nm; the “Wavelength of fluorescence emission maximum, thermally denatured” value was 350 nm. Besides, in data set [2] (CD 222 nm, 20 µM protein, 7 mM Tris pH 7.4, 170 mM KCl, 5 mM MgCl2, three-state fit (C-term two-state), SE of fit), the “∆Hm, 1st transition” value turned out to be 49.4 ± 3.3 kcal/mol. Further, the “∆Hm, 2nd transition” value in data set [2] (CD 222 nm, 20 µM protein, 7 mM Tris pH 7.4, 170 mM KCl, 5 mM MgCl2, three-state fit, SE of fit) amounted to 53.3 ± 1.2 kcal/mol. Further, the “Tm, 1st transition” value in data set [2] (CD 222 nm, 5 to 90 °C at 1 °C/min, 20 µM protein, 7 mM Tris pH 7.4, 170 mM KCl, 5 mM MgCl2, three-state fit (C-term two-state), SE of fit) came out at 45.6 ± 0.4 °C. The “Tm, 2nd transition” value in data set [2] (CD 222 nm, 5 to 90 °C at 1 °C/min, 20 µM protein, 7 mM Tris pH 7.4, 170 mM KCl, 5 mM MgCl2, three-state fit, SE of fit) was 73.1 ± 0.1 °C and 73.1 ± 0.2 °C. Further, the “Degree of irreversibility of overall protein thermal denaturation” value in data set [2] (far-UV CD) was “ca. 20%”. In data set [2] (far-UV CD, second denaturation curve after cooling), the “Reversibility of thermal unfolding” value was “is not”. Also, in data set [3] (setting [4]), the Dimer population is 40%; the Monomer population is 46%; the Total oligomer population was > 50% and 54%; the Trimer population is given as 12%. Further, the Tetramer population in data set [3] (low μM protein, pH 7.4) is given as 2%.
